Measurements published in the supplement of paper PMC12764529.
± gives the half width of the 95% confidence interval.

Assay: folding stability dG unfold from chymotrypsin proteolysis; higher = more stable
In short: (§1)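 Sequencing followed digestion of designed mini-proteins with trypsin and chymotrypsin, each at 11 concentrations in threefold dilutions together with a no-protease condition. The mini-proteins were under 80 residues, had no cysteine, sat in a PA-tagged cDNA display construct, and were kept only if AlphaFold2 dimer inter-PAE was above 15. From the counts, Bayesian fitting gave K50, and unfolding free energy was derived against a sequence-predicted unfolded-state K50 and a shared folded-state K50, per protease or combined.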

| Sequence | folding stability dG unfold |
| --- | --- |
| SAGGSAGGSPPMKTYEHWIRFDSPEQAVEEVANHIQDHFGLEIKSVEIEYDPENGWVRVKIVISAGGSAGGS [r12_265_TrROS] | 3.449 ± 0.029 kcal/mol |
| SMKKTYTFPVTLVPKDGKASLTVNWYAPDGTSLGTQTKSASAEGNTVTATVTVTVDAPPGAKIPSITVNASA [r9_292_JUSTAS] | 0.473 ± 0.052 kcal/mol |
| SAGGSMSLEGVSTVSEEKFPEKPTTLVPLTYPDGTTVEANRTLDPVTGKWTLPVTTPDGTVVVVDESAGGSA [r2_490_JUSTAS] | 0.487 ± 0.073 kcal/mol |
| SAMKYVELKLTITVPKEKEEEIEKLKKALEKLGAEIVSVEVEYDEETEEVTVTVTIRIENLSEEELKKASAG [r14_956_TrROS_Hall] | 2.97 ± 0.08 kcal/mol |
| SAGGSAMIEIKVEVNGKTYRITIEKNEDGTLTLTVYDEKTGKKTEIEIPLENLEELKKLNVKRIEISAGGSA [r15_629_TrROS_Hall] | 3.54 ± 0.036 kcal/mol |
| SAGGSAGGSAGRRVTINHNPENGFFRVKVYPPKGKSQVYPIPMENLEEIKKNLPPGVEIVSAGGSAGGSAGG [r11_569_TrROS] | -0.511 ± 0.24 kcal/mol |
| SAMELRVESELFPDGRRRLVVLDPGDGAPVVTFIDLEPVDGGYRASITQIGPDPAVAERVARELGIPPESAG [r14_545_TrMRF] | 1.17 ± 0.047 kcal/mol |
| SAGGSATPEEIAKKFFENHPELEPVEVKLEKFKIPGLKIWVVKVEITLKFKDNSKKKIPVVAVFPVSAGGSA [r15_266_TrMRF] | 3.01 ± 0.039 kcal/mol |
| SAGGSPSMSPEELAKREKERILEELRKKGGSKTIPMKVEITVPDEKGNTTKYNIEINITVEVPEDKLSAGGS [r16_550_JUSTAS] | 1.31 ± 0.1 kcal/mol |
| SAMIEIPFSPDTPVEERLAMIKEAIEAAKAAGIEPKEITLIVPPDREDILEAVEEAGIPKERVKIKDQPSAG [r14_589_JUSTAS] | 1.49 ± 0.057 kcal/mol |
| SAGGSAGGSPIVVDSPEDIEKAIEEAIASGAKSIVEVGPNRVRVVFVIPGEPKVFVLELPLNGSAGGSAGGS [r12_368_TrMRF] | 1.93 ± 0.092 kcal/mol |
| SAGGSASIEIPVGDKPVRIEILSLEPEGERVRARAVVYFPDDPEYREISGDLTLEELIDAILEAIGSAGGSA [r15_944_TrMRF] | 1.148 ± 0.011 kcal/mol |
| SAGGNKATLTVSEDNYPVLLLELYAPDGELIATAPVLLDPEKGGLTAADLERLLKEIDVPPDVEVNIASAGG [r13_479_TrMRF] | 1.36 ± 0.037 kcal/mol |
| SAGGSAGGDKAVIVDFNPIEPEAVIYFPKTGKAIKFKFDSLEELRDSIEPSGIPVEIVITPPELSAGGSAGG [r6_27_TrMRF] | 0.196 ± 0.25 kcal/mol |
| SAGGSAGGSAGKDIAKNIPPGAKILPIEPQPRGGGLYVKIEIEMPDPNGKKEKVTFTFPISAGGSAGGSAGG [r17_140_TrROS] | 0.589 ± 0.26 kcal/mol |
| SAGGSAPVVVVVTPKNGKPIKLKFKFTKKEEAEAAVEEIKKALPKNTKVEAFYVDEEVVKEDKEYLSAGGSA [r15_469_TrMRF] | 1.97 ± 0.068 kcal/mol |
| SAGGSAPPNWRRIEITFYIPPGQPTVSELADHIAKRIGFPVTGVEIDKVERNPDGAYEVKVSIIVPSAGGSA [r15_654_TrROS] | 2.9 ± 0.054 kcal/mol |
| SAGGLSYIELEVEFPGGGSFEEAKARAEKLAEEVRKKLGLKEVKIEIKKNPDGSYRVKITIKVPSKLSAGGS [r8_3_JUSTAS] | 3.04 ± 0.077 kcal/mol |
| SAGGSAGGSAGMPEVEVEVKIIKFDKEKNVFVIEVTDKKTGKRVTLTIKNGKIELKVEEPSAGGSAGGSAGG [r17_370_TrROS_Hall] | 4.06 ± 0.089 kcal/mol |
| SNPWVEITIYFPMRPDPNGKMQPLSPSELLEELLKQGFPIKDIDIDEVTDNYIPITIRIDAKDGKIEIEWSA [r9_225_TrROS] | 3.18 ± 0.13 kcal/mol |
| SGKDTLILELVLEVDSEEQAQAIRDIFEALGYKVEVRVFPLPDGLIVFVRVEVPVPPPPPSLEDPELLAKSA [r9_863_TrMRF] | 2.75 ± 0.028 kcal/mol |

| Sequence | folding stability dG unfold |
| --- | --- |
| SAGGSAGGSAGGGVAFSSDTTETRIDTTDDDTIVITTTTYAPNPSSTTTTVTTVPPDVPLSAGGSAGGSAGG [r7_128_JUSTAS] | 0.0059 ± 0.23 kcal/mol |
| SAGGSAMPLLKPPKTIRLRILFKVPEPGKELDITEEAVRELFNPFGAKVRIYRDGDYVLIEVEFVVSAGGSA [r15_377_TrMRF] | 3.37 ± 0.089 kcal/mol |
| SAGGSAGGSSKYIKFIIPANSPEAIEKAKELAEFIKKKYPGIKKIEVKYNPEKGYLEVIAEVESAGGSAGGS [r12_248_TrMRF] | 3.87 ± 0.048 kcal/mol |
| SAGGSAGGSAGGMMRIRIKIYNVETGEWKEIEIEVPESVKEITLEIELPEGWRIVEIEVESAGGSAGGSAGG [r7_687_TrROS_Hall] | 5.22 ± 0.087 kcal/mol |
| MKPLTPDEVKELAKFIANMIRRRMRENGIKDVEIPVKVEPDPNGWYWINVSITFKYNGKPIGRFPIEIWVRS [r1_364_TrROS] | 3.781 ± 0.019 kcal/mol |
| SAGGSAGGSAGGVSPEANIKEVSKDPKTGLTTSLAKDPNSDNEITITKDSSGNSSINISSAGGSAGGSAGGS [r10_450_JUSTAS] | 1.08 ± 0.029 kcal/mol |
| SAGGSAGGSFRIPKGDPNMKIRIIFQWPNGQPMPMEYTVTPDGTFKINIPGMPPNRIESIEIWSAGGSAGGS [r12_477_TrROS] | 1.68 ± 0.26 kcal/mol |
| SAGGSMEEEFAARGATVTIDPEKGVITVTFYEEVTQPDGTPVLRRKGTLTIEVPGNDPSQALAKALEESAGG [r13_924_JUSTAS] | 2.1 ± 0.088 kcal/mol |
| SASSSFTLPGLKLEVETQKVSTFPTPDGTPVVLYETTIHFLEVPESLRAEGKPLSLESSVKKLKVVPLPSAG [r14_942_JUSTAS] | 0.453 ± 0.33 kcal/mol |
| SAGMTEVAKEIADTLAEQFPPGYKIDDIKVQPLPDNMFRVPITIKRRDPNGKPRGPRQIEIWIPPEQFSAGG [r19_28_TrROS] | 0.21 ± 0.17 kcal/mol |
| SAGGSAGGKKVIVKIKIKVKDKETGEEKEIEITLEFETEEEAKAAIEALKALPPGVEIKIELLPSAGGSAGG [r6_999_TrROS_Hall] | 2.72 ± 0.097 kcal/mol |
| SAGGSAGGMVFENLSEEEAKIIAKNIAENFKKKYPNVKIKVEAEVYKLPNPKVIVVIKLEIEEESAGGSAGG [r6_787_TrMRF] | 3.54 ± 0.07 kcal/mol |
| SAGGSAMTKVTVTFDPVTGTYTIKTTDSKGPSEYPLPKSFLEKTPLSEVAKKLNLNISEFTIEPNPSAGGSA [r15_801_JUSTAS] | 1.25 ± 0.099 kcal/mol |
| SAGGGMSVSELKKFFPNLKPGATFVLKDPNSDRTGTGTLLSDGTIKVQLPGSEVTVPDDTLVVSISASAGGS [r8_162_JUSTAS] | -0.237 ± 0.27 kcal/mol |
| SAGMTIILVGPNAKEAVEKVAEELRKRDVGPPVTVLVLEPGGKPVLRARVERRPPDPDRFVVTVEPVESAGG [r19_85_TrMRF] | 1.41 ± 0.11 kcal/mol |
| SAGGMITATFTIDLGAGPVTFTFDITDIETALEKIKEYLKSQGIDAKLVSVSVDPANGTVPMKLSVPPSAGG [r13_567_JUSTAS] | 1.46 ± 0.14 kcal/mol |
| SAGGSGIEAAILEAVEKGLNPVELTFRLPEDGKLVVLKVEVLDVLDGGAIVKVEMEVYDPENPKKISAGGSA [r2_420_TrMRF] | 2.14 ± 0.063 kcal/mol |
| SAGGIPPNDPEYQQKMQLLKEIQNFAKEQQQNGRDVKIETIEINPEDGRVTITVQYPNGKKVTITIPSAGGS [r8_277_TrROS] | 1.56 ± 0.048 kcal/mol |
| SAGGMVTVTDPNGVKHEYKLKVKITFEKPDGKPVTVEIEFDNVTVEDIVKIAKEIESKGYKLVSIEISSAGG [r13_227_TrMRF] | 4.91 ± 0.15 kcal/mol |
| SAGGSAGGSAGGKDVRITVSPNNMRISIWKRDPNDGKWKPIGTIPMPPNDPDKALDQLKSAGGSAGGSAGGS [r10_275_TrROS] | -1.13 ± 0.91 kcal/mol |
| SAGGSAGGSATVTVERVGNRLLLSFPDGSYYVAELPGEAEVDLASGKITLPANSRVEPVPLERSAGGSAGGS [r20_158_TrMRF] | 1 ± 0.015 kcal/mol |

Assay: folding stability dG unfold from trypsin proteolysis; higher = more stable
In short: as §1

| Sequence | folding stability dG unfold |
| --- | --- |
| SAGGSAGGSPPMKTYEHWIRFDSPEQAVEEVANHIQDHFGLEIKSVEIEYDPENGWVRVKIVISAGGSAGGS [r12_265_TrROS] | 2.71 ± 0.075 kcal/mol |
| SMKKTYTFPVTLVPKDGKASLTVNWYAPDGTSLGTQTKSASAEGNTVTATVTVTVDAPPGAKIPSITVNASA [r9_292_JUSTAS] | 0.091 ± 0.041 kcal/mol |
| SAGGSMSLEGVSTVSEEKFPEKPTTLVPLTYPDGTTVEANRTLDPVTGKWTLPVTTPDGTVVVVDESAGGSA [r2_490_JUSTAS] | 1.34 ± 0.048 kcal/mol |
| SAMKYVELKLTITVPKEKEEEIEKLKKALEKLGAEIVSVEVEYDEETEEVTVTVTIRIENLSEEELKKASAG [r14_956_TrROS_Hall] | 1.97 ± 0.048 kcal/mol |
| SAGGSAMIEIKVEVNGKTYRITIEKNEDGTLTLTVYDEKTGKKTEIEIPLENLEELKKLNVKRIEISAGGSA [r15_629_TrROS_Hall] | 1.78 ± 0.077 kcal/mol |
| SAGGSAGGSAGRRVTINHNPENGFFRVKVYPPKGKSQVYPIPMENLEEIKKNLPPGVEIVSAGGSAGGSAGG [r11_569_TrROS] | 0.206 ± 0.12 kcal/mol |
| SAMELRVESELFPDGRRRLVVLDPGDGAPVVTFIDLEPVDGGYRASITQIGPDPAVAERVARELGIPPESAG [r14_545_TrMRF] | -0.191 ± 0.21 kcal/mol |
| SAGGSATPEEIAKKFFENHPELEPVEVKLEKFKIPGLKIWVVKVEITLKFKDNSKKKIPVVAVFPVSAGGSA [r15_266_TrMRF] | 2.02 ± 0.066 kcal/mol |
| SAGGSPSMSPEELAKREKERILEELRKKGGSKTIPMKVEITVPDEKGNTTKYNIEINITVEVPEDKLSAGGS [r16_550_JUSTAS] | 0.622 ± 0.082 kcal/mol |
| SAMIEIPFSPDTPVEERLAMIKEAIEAAKAAGIEPKEITLIVPPDREDILEAVEEAGIPKERVKIKDQPSAG [r14_589_JUSTAS] | 0.789 ± 0.045 kcal/mol |
| SAGGSAGGSPIVVDSPEDIEKAIEEAIASGAKSIVEVGPNRVRVVFVIPGEPKVFVLELPLNGSAGGSAGGS [r12_368_TrMRF] | 1.42 ± 0.051 kcal/mol |
| SAGGSASIEIPVGDKPVRIEILSLEPEGERVRARAVVYFPDDPEYREISGDLTLEELIDAILEAIGSAGGSA [r15_944_TrMRF] | 1.3 ± 0.016 kcal/mol |
| SAGGNKATLTVSEDNYPVLLLELYAPDGELIATAPVLLDPEKGGLTAADLERLLKEIDVPPDVEVNIASAGG [r13_479_TrMRF] | 1.21 ± 0.096 kcal/mol |
| SAGGSAGGDKAVIVDFNPIEPEAVIYFPKTGKAIKFKFDSLEELRDSIEPSGIPVEIVITPPELSAGGSAGG [r6_27_TrMRF] | -0.138 ± 0.19 kcal/mol |
| SAGGSAGGSAGKDIAKNIPPGAKILPIEPQPRGGGLYVKIEIEMPDPNGKKEKVTFTFPISAGGSAGGSAGG [r17_140_TrROS] | -0.467 ± 0.14 kcal/mol |
| SAGGSAPVVVVVTPKNGKPIKLKFKFTKKEEAEAAVEEIKKALPKNTKVEAFYVDEEVVKEDKEYLSAGGSA [r15_469_TrMRF] | 1.16 ± 0.017 kcal/mol |
| SAGGSAPPNWRRIEITFYIPPGQPTVSELADHIAKRIGFPVTGVEIDKVERNPDGAYEVKVSIIVPSAGGSA [r15_654_TrROS] | 2.69 ± 0.056 kcal/mol |
| SAGGLSYIELEVEFPGGGSFEEAKARAEKLAEEVRKKLGLKEVKIEIKKNPDGSYRVKITIKVPSKLSAGGS [r8_3_JUSTAS] | 2.76 ± 0.063 kcal/mol |
| SAGGSAGGSAGMPEVEVEVKIIKFDKEKNVFVIEVTDKKTGKRVTLTIKNGKIELKVEEPSAGGSAGGSAGG [r17_370_TrROS_Hall] | 2.85 ± 0.098 kcal/mol |
| SNPWVEITIYFPMRPDPNGKMQPLSPSELLEELLKQGFPIKDIDIDEVTDNYIPITIRIDAKDGKIEIEWSA [r9_225_TrROS] | 2.12 ± 0.21 kcal/mol |
| SGKDTLILELVLEVDSEEQAQAIRDIFEALGYKVEVRVFPLPDGLIVFVRVEVPVPPPPPSLEDPELLAKSA [r9_863_TrMRF] | 1.92 ± 0.092 kcal/mol |
